Consider two molecules from paper PMC5342195, “Structure-based mutational analysis of ICAT residues mediating negative regulation of β-catenin co-transcriptional activity” (PLoS ONE, 2017).

Test [1] addresses T1, ICAT D66G + F71A (GA), Flag-tagged (human, UniProt Q9NSA3 1-81, D66G | F71A).
T1 construct: ICAT, human cDNA of 243 bp in pFLAG-CMV2, double mutant of the C-terminal domain; also called ICAT-GA; source: Mel501 cells, transiently transfected, in total cell lysate
Nature of the test: co-IP; total cell lysates of Mel501 cells transfected with ICAT-Flag WT or mutants, anti-Flag monoclonal antibody 2 h at 4°C, Protein G agarose, washed with RIPA; blot for endogenous β-catenin; densitometry with ImageJ, control fixed to 1.0. The following applies: partners not purified.

Test [2] deals with T2, ICAT F71A + E75V (AV), Flag-tagged (human, UniProt Q9NSA3 1-81, F71A | E75V).
T2 construct: ICAT, human cDNA of 243 bp in pFLAG-CMV2, double mutant of the C-terminal domain; also called ICAT-AV; source: Mel501 cells, transiently transfected, in total cell lysate
The description is as above. The following applies: partners not purified.

Test [3] deals with T3, ICAT D66G + F71A + E75V (GAV), Flag-tagged (human, UniProt Q9NSA3 1-81, D66G | F71A | E75V).
T3 construct: ICAT, human cDNA of 243 bp in pFLAG-CMV2, triple mutant of the C-terminal domain; also called ICAT-GAV; source: Mel501 cells, transiently transfected, in total cell lysate
T3 sequence (looked up): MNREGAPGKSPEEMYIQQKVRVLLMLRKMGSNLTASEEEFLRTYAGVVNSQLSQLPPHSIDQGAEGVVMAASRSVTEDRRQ
Described as above. The following applies: partners not purified.

Test [4] concerns the target T4, WT ICAT-GST recombinant protein (human, UniProt Q9NSA3 1-81).
T4 construct: ICAT, WT human cDNA cloned in the bacterial expression vector pGEX-4T3; also called recombinant WT ICAT-GST protein
Nature of the test: pull-down; WT ICAT-GST on glutathione-Sepharose 4B beads incubated 3 h at 4°C with total cell lysate in RIPA (500 μg of total proteins) of Lu1205 cells transfected with HA-tagged β-catenin-NLS WT or mutants; washed five times; anti-HA blot; densitometry with ImageJ. The note with it: one partner purified.

B1: endogenous β-catenin of Mel501 cells (natural protein, human (endogenous in Mel501), UniProt P35222 1-781, looked up)
chain: MATQADLMELDMAMEPDRKAAVSHWQQQSYLDSGIHSGATTTAPSLSGKGNPEEEDVDTSQVLYEWEQGFSQSFTQEQVADIDGQYAMTRAQRVRAAMFPETLDEGMQIPSTQFDAAHPTNVQRLAEPSQMLKHAVVNLINYQDDAELATRAIPELTKLLNDEDQVVVNKAAVMVHQLSKKEASRHAIMRSPQMVSAIVRTMQNTNDVETARCTAGTLHNLSHHREGLLAIFKSGGIPALVKMLGSPVDSVLFYAITTLHNLLLHQEGAKMAVRLAGGLQKMVALLNKTNVKFLAITTDCLQILAYGNQESKLIILASGGPQALVNIMRTYTYEKLLWTTSRVLKVLSVCSSNKPAIVEAGGMQALGLHLTDPSQRLVQNCLWTLRNLSDAATKQEGMEGLLGTLVQLLGSDDINVVTCAAGILSNLTCNNYKNKMMVCQVGGIEALVRTVLRAGDREDITEPAICALRHLTSRHQEAEMAQNAVRLHYGLPVVVKLLHPPSHWPLIKATVGLIRNLALCPANHAPLREQGAIPRLVQLLVRAHQDTQRRTSMGGTQQQFVEGVRMEEIVEGCTGALHILARDVHNRIVIRGLNTIPLFVQLLYSPIENIQRVAAGVLCELAQDKEAAEAIEAEGATAPLTELLHSRNEGVATYAAAVLFRMSEDKPQDYKKRLSVELTSSLFRTEPMAWNETADLGLDIGAQGEPLGYRQDDPSYRSFHSGGYGQDALGMDPMMEHEMGGHHPGADYPVDGLPDLGHAQDLMDGLPPGDSNQLAWFDTDL
notes: β-catenin, endogenous in the human melanoma cell line Mel501; also called CTNNB1; source: endogenous, Mel501 total cell lysate
Turning to B1, the “reduction of co-precipitated β-catenin against ICAT WT” value in test [1], in test [2] and in test [3] was over 70% in each case.

B2: HA-tagged β-catenin-NLS Δ665 (D665X) (domain or fragment, UniProt P35222 1-664, looked up)
chain: MATQADLMELDMAMEPDRKAAVSHWQQQSYLDSGIHSGATTTAPSLSGKGNPEEEDVDTSQVLYEWEQGFSQSFTQEQVADIDGQYAMTRAQRVRAAMFPETLDEGMQIPSTQFDAAHPTNVQRLAEPSQMLKHAVVNLINYQDDAELATRAIPELTKLLNDEDQVVVNKAAVMVHQLSKKEASRHAIMRSPQMVSAIVRTMQNTNDVETARCTAGTLHNLSHHREGLLAIFKSGGIPALVKMLGSPVDSVLFYAITTLHNLLLHQEGAKMAVRLAGGLQKMVALLNKTNVKFLAITTDCLQILAYGNQESKLIILASGGPQALVNIMRTYTYEKLLWTTSRVLKVLSVCSSNKPAIVEAGGMQALGLHLTDPSQRLVQNCLWTLRNLSDAATKQEGMEGLLGTLVQLLGSDDINVVTCAAGILSNLTCNNYKNKMMVCQVGGIEALVRTVLRAGDREDITEPAICALRHLTSRHQEAEMAQNAVRLHYGLPVVVKLLHPPSHWPLIKATVGLIRNLALCPANHAPLREQGAIPRLVQLLVRAHQDTQRRTSMGGTQQQFVEGVRMEEIVEGCTGALHILARDVHNRIVIRGLNTIPLFVQLLYSPIENIQRVAAGVLCELAQDKEAAEAIEAEGATAPLTELLHSRNEGVATYAAAVLFRMSE
notes: β-catenin of the HA-tagged CMV::β-catenin-NLS expression vector, truncated by a premature stop codon at residue 665 (D665X); lacks helix C (residues 667-683) and the C-terminal domain; If the NLS stood at the C-terminus of the parent construct, the stop codon would remove it; also called β-catenin Δ665; source: Lu1205 cells, transfected, in total cell lysate
On to B2, for which the “fold of pulled-down protein against full-length WT β-catenin” value in test [4] worked out at 1.5 fold.
